Results from the nanobody polyreactivity screen of Harvey et al. (2022).

Experiment: yeast display, Sf9 membrane polyspecificity reagent, FACS + sequencing; frameworks hold sequencing errors
Method in brief: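 In a synthetic yeast display library (Saccharomyces cerevisiae BJ5465), nanobody expression was induced with galactose for 36–48 hours. FACS gates were set low and high (top ~1%) using anti-HA fluorescence for expression and streptavidin fluorescence for binding of the Sf9 membrane reagent. Each polyreactivity label is drawn from the gate of origin.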

## QVQLVESGGGLVQAGGSLRLSCAASGIIFGTYDMGWNRQAPGKERELVAANTSGTSTNYADSVKGRFTISRDNAMNTVYLQMNSLKPEDTAVYYCAADVYLYYPYFGHRRYNYWGQGTQVTVSS
  polyreactivity (PSR sort gate): high polyreactivity

## QVQLVESGGGLVQAGGSLRLSCAASGIIFGVYAMGWYRQAPGKERELVAAIDGNGSSTYYADSVKGRFTISRDNAKNSVYLQMNSLKPEDTAVYYCNKDVARYPYGKFDYWGQGTQVTVSS
  polyreactivity (PSR sort gate): low polyreactivity

## QVQLVESGGGLVQAGGSLRLSCAASGIIFGVYAMGWYRQAPGKERELVAAISWTGGSTFYADSVKGRFTISRDNAKITVYLQMNILKPEDTAVYYCAVDYWSGITWVEYWGQGTQVTVSS
  polyreactivity (PSR sort gate): high polyreactivity

## QVQLVESGGGLVQAGGSLRLSCAASGIIFGWYAMGWYRQAPGKERELVAAISSGGRTNYADSVKGRFTISRDNAKNTVYLQMNSLKPEDTEVYYCAAAYIRGSRRYDYCGQGTQVTVSS
  polyreactivity (PSR sort gate): high polyreactivity

## QVQLVESGGGLVQAGGSLRLSCAASGIIFGWYAMGWYRQAPGTERELVADISSDDSTYYADSVKGRFTISRDNAKNTVYLQMNSLKPEDTAVYDCAAETEYYSYRFDYWGQGTQVTVSS
  polyreactivity (PSR sort gate): high polyreactivity

## QVQLVESGGGLVQAGGSLRLSCAASGIIFGYNAMGWYRQAPGKERELVAAISYGGGRSYYADSVKGRFTISRDNAKNTVYFQMNSLKPEDTAVYYCAAQYFASRSYGYDYWGQGTQVTVSS
  polyreactivity (PSR sort gate): high polyreactivity

## QVQLVESGGGLVQAGGSLRLSCAASGIIFGYYAMGGYRQAPGKERELVAAISSRGSRTYYADSVKGRFTISRDNAKNTVYLQMNSLKPEDTAVYYCAARHFARMGYWGQGTQVTVSS
  polyreactivity (PSR sort gate): high polyreactivity

## QVQLVESGGGLVQAGGSLRLSCAASGIIFGYYAMGWYRQAPAKERELVAAISQSGGDTYYADSVKGRYTISRDLAKNTVYLQMNSVKPEDTAVYYCAASVWYYPMDYWGQGTHVTVSS
  polyreactivity (PSR sort gate): low polyreactivity

## QVQLVESGGGLVQAGGSLRLSCAASGIIFGYYAMGWYRQAPGKERELVAAIDWTGGNTYYAVSVKGRFTISRDNAKNTVYLQMNSLKPEDTAVYYCAADYNSQEDYWGQGTQVTVSS
  polyreactivity (PSR sort gate): low polyreactivity

## QVQLVESGGGLVQAGGSLRLSCAASGIIFGYYAMGWYRQAPGKERELVAAISGNGGSTYYADSVKGRFTLSRDNAKITVYLQMNSLKPEDTAVYYCAARRGYRYGPRYDYWGQGTQVTVSS
  polyreactivity (PSR sort gate): high polyreactivity

## QVQLVESGGGLVQAGGSLRLSCAASGIIFGYYAMGWYRQAPGKERELVASIIWSGGSTYYADSVKGRFTISRDNAKNTVYLQMNSLKPEDTAVYYCAAYRYQEYDYWGQGTQVTVSS
  polyreactivity (PSR sort gate): high polyreactivity

## QVQLVESGGGLVQAGGSLRLSCAASGIIFHGNAMGWYRQAPGKERELVAAIRWSGGSTYYADSVKGRFTISRDNAKNSVYLPMNSLKPEDTAVYYCNAGRSWRRTHYDYWGQGTQVTVSS
  polyreactivity (PSR sort gate): high polyreactivity

## QVQLVESGGGLVQAGGSLRLSCAASGIIFIGYAMGWYRQAAGKERELVAAITRSGVSTYYADSVKGRFTISRDNAKNTVYLQMNSLKPEDTAVYYCAARYFGEKYSQGFDYWGQGTQVTVSS
  polyreactivity (PSR sort gate): low polyreactivity

## QVQLVESGGGLVQAGGSLRLSCAASGIIFIHYAMGWYRQAPGKERELVAAITSGGSTNYADSVKGRFTISRDNAKNTVYLQMNSLKPEDTAVYYCNAEPVASYYRVSDYEYWGQGTQVTVSS
  polyreactivity (PSR sort gate): low polyreactivity

## QVQLVESGGGLVQAGGSLRLSCAASGIIFIHYTMGWYRQAPGKERELVAAISWSGGSTYYADSVKGRFTISRDNAKNTVYLQMNSLKPEDTAVYYCAADYIFYHRMYYWGQGTQVTVSS
  polyreactivity (PSR sort gate): high polyreactivity

## QVQLVESGGGLVQAGGSLRLSCAASGIIFIKYAMGWYRQAPGKERELVAGINVSSGGDTYADSVKGRFTISRDNAKNTVYLQMNSLKPEDTAVYYCNAGTGGPDYVFITEYDYWGQGTQVTVSS
  polyreactivity (PSR sort gate): low polyreactivity

## QVQLVESGGGLVQAGGSLRLSCAASGIIFINYVMGWYRQAPGKERELVAAISIGGGRTYYADSVKGRFTISRDNAKNTVYLQMNSLKPEDTAVYYCAAEYFYGYKDVYDYWGQGTQVTVSS
  polyreactivity (PSR sort gate): high polyreactivity

## QVQLVESGGGLVQAGGSLRLSCAASGIIFIYNAMGWYRQAPGKERELVADIRRSGSTSYADSVKGRFTISRDNAKNTVYLQMNSLKPEDTAVYYCAADTSTWFGAYYLRDPYDYWGQGTQVTVSS
  polyreactivity (PSR sort gate): low polyreactivity

## QVQLVESGGGLVQAGGSLRLSCAASGIIFKGYDMGWYRQAPGKERELVAAISSGSTNYADSVKGRFTISRDNAKNTVYLQMNSLKPEDTAVYYCAVRTYRYQSWGNYYLEYDYWGQGTQVTVSS
  polyreactivity (PSR sort gate): low polyreactivity

## QVQLVESGGGLVQAGGSLRLSCAASGIIFKIYAMGWYRQAPGKARELVAAISWRGGSTYYADSVKGRFTISRDNAKNTVYLQMNSLKPEDTAVYYCAAARGYRTGYGYWGQGTQVTVSS
  polyreactivity (PSR sort gate): high polyreactivity

## QVQLVESGGGLVQAGGSLRLSCAASGIIFKQYAMGWYRQAPGKERELVAAITGSGGRTTYADSVKGRFTISRDNAMNTVYLQMNSLKPEDTAVYFCAAVGLSGWRDGYWGQGTQVTVSS
  polyreactivity (PSR sort gate): high polyreactivity

## QVQLVESGGGLVQAGGSLRLSCAASGIIFKRNAMGWYRQAPGKERELVAAITYRGTSTYYADSVKGRFTISRDNAKNTVYLQMNSLKPEDTAVYYCNAVGRSSGSAFNYWGQGTQVTVSS
  polyreactivity (PSR sort gate): high polyreactivity

## QVQLVESGGGLVQAGGSLRLSCAASGIIFKRYVMGWYRQAPGKDRQLVAGISWSGVSTFYADSVKGRFTISRDNAKNTVYLQMNSLKPEDTAVYYCAADRARYYYQAYGAYGYWGQGTQVTVSS
  polyreactivity (PSR sort gate): high polyreactivity

## QVQLVESGGGLVQAGGSLRLSCAASGIIFKSYVMGWYRQAPGKEREFVARITYRGGSTYYADSVKGRFTISRDNAKNTVYLQMNSLKPEDTAVYYCNKKNPQDLTENGYWGQGTQVTVSS
  polyreactivity (PSR sort gate): high polyreactivity

## QVQLVESGGGLVQAGGSLRLSCAASGIIFKTYAMGWYRQAPGKERELVAGIDYSGGGTSYADSVKGRFTISRDNAKNTVYLQMNSLKPEDTAVYYCAADAYSGAYFTYLGEIYDYWGQGTQVTVSS
  polyreactivity (PSR sort gate): low polyreactivity

## QVQLVESGGGLVQAGGSLRLSCAASGIIFKTYTMGWYRTAPGKERELVAAITFSGGSTYYADSVKGRFTISRDNAKNTVYLQMNSLKPEDTAVYYCADTHRFWWYSDDYWGQGTQVTVSS
  polyreactivity (PSR sort gate): high polyreactivity

## QVQLVESGGGLVQAGGSLRLSCAASGIIFKVYAMGWYRQAPGKERELVAAISKSGGSTYYADSVKGRFTISRDNAKNTVYLQMNSLNPEDTAVYYCAARDYARYASYYYWGQGTQVTVSS
  polyreactivity (PSR sort gate): high polyreactivity

## QVQLVESGGGLVQAGGSLRLSCAASGIIFLDNAMGWYRQAPGKERELVAAITTGGITYYADSVKGRFTISRDNAKNTVYLQMNSLKPEDTAVYYCAADNEWPRYDYWGQGTQVTVSS
  polyreactivity (PSR sort gate): low polyreactivity

## QVQLVESGGGLVQAGGSLRLSCAASGIIFLDYVMGWYRQAPGKERELVAAINSGGSTYYADSVKGRFTISRANAKNNVYLQMNSLKPEDSAVYYCNAVFYDDWQIYDYWGQGTQVTVSS
  polyreactivity (PSR sort gate): low polyreactivity

## QVQLVESGGGLVQAGGSLRLSCAASGIIFLKNAMGWYRQAPGKERELVAAITVSGARTYYADSVKGRFTISRDNAKNTVYLQMNSLKPEDTAVYYCATDRSYQRYNYWGQGTQVTVSS
  polyreactivity (PSR sort gate): high polyreactivity

## QVQLVESGGGLVQAGGSLRLSCAASGIIFLKYAMGWYRQAPGKERELVAGISVRGGRTYYADSVKGRFTISRDNAKNTVYLQMNSLKPEDTAVYYCAKERSRYYPYDYWGQGTQVTVSS
  polyreactivity (PSR sort gate): high polyreactivity

## QVQLVESGGGLVQAGGSLRLSCAASGIIFLNNAMGCYRQAPGKERELVAAITRTSTSTYYADSVKGRFTISRDNAKNTVYLQMNSLKPEDTAVYYSLVYWGQGTQVTVSS
  polyreactivity (PSR sort gate): low polyreactivity
